Results on 19 molecules are retold here after the FLAb antibody collection (doi:10.1101/2023.12.08.570889).

Sequences and labels used below:
B1: unnamed (protein)
chain 1: QVQLVQSGAEVKKPGASVKVSCKASGYSFTSSWIHWVKQAPGQGLEWMGEINPGNVRTNYNENFRNKVTMTVDTSISTAYMELSRLRSDDTAVYYCTVVFYGEPYFPYWGQGTLVTVSS
chain 2: QIVLTQSPGTLSLSPGERATMTCTASSSVSSSYFHWYQQKPGQAPRLWIYRTSRLASGVPDRFSGSGSGTDFTLTISRLEPEDAATYYCHQFHRSPLTFGAGTKLEIK
B2: unnamed (protein)
chain 1: B1 chain 1 with V98R, F100R, E103Y, Y105W, P107D
chain 2: B1 chain 2
B3: unnamed (protein)
chain 1: B1 chain 1 with V98R, F100R, Y101F, P107D
chain 2: B1 chain 2
B4: unnamed (protein)
chain 1: B1 chain 1 with V98R, F100M, P107D
chain 2: B1 chain 2
B5: unnamed (protein)
chain 1: B1 chain 1 with V98R, F100S, P107D
chain 2: B1 chain 2
B6: unnamed (protein)
chain 1: B1 chain 1 with V98R, F100R, Y101F, E103Y, Y105W, P107D
chain 2: B1 chain 2
B7: unnamed (protein)
chain 1: B1 chain 1 with V98R, F100Q, P107D
chain 2: B1 chain 2
B8: unnamed (protein)
chain 1: B1 chain 1 with V98R, F100S, Y105W, P107D
chain 2: B1 chain 2
B9: unnamed (protein)
chain 1: B1 chain 1 with V98R, F100Q, E103Y, P107D
chain 2: B1 chain 2
B10: unnamed (protein)
chain 1: B1 chain 1 with V98R, V99I, F100R, P107D
chain 2: B1 chain 2
B11: unnamed (protein)
chain 1: B1 chain 1 with V98R, V99S, F100R, Y105W, P107D
chain 2: B1 chain 2
B12: unnamed (protein)
chain 1: B1 chain 1 with V98R, F100R, Y105W, P107D
chain 2: B1 chain 2
B13: unnamed (protein)
chain 1: EVQLLESGGGLVQPGGSLRLSCAASGFTFSQYGMDWVRQAPGKGLEWVSGIGPSGGSTVYADSVKGRFTISRDNSKNTLYLQMNSLRAEDTAVYYCTRGGPWYYYAFDVWGQGTTVTVSS
chain 2: DIQMTQSPSSLSASVGDRVTITCQASQDISNYLNWYQQKPGKAPKLLIYDASNLETGVPSRFSGSGSGTDFTFTISSLQPEDIATYYCQQADSFPVTFGGGTKVEIK
B14: unnamed (protein)
chain 1: B13 chain 1 with P101T, W102A
chain 2: B13 chain 2
B15: unnamed (protein)
chain 1: B13 chain 1 with G99D, W102D, V109Y
chain 2: B13 chain 2
B16: unnamed (protein)
chain 1: B13 chain 1 with T97A, W102A, Y103W
chain 2: B13 chain 2
B17: unnamed (protein)
chain 1: B13 chain 1 with W102A, Y103W
chain 2: B13 chain 2
B18: unnamed (protein)
chain 1: B13 chain 1 with T97A, P101S, W102A
chain 2: B13 chain 2
B19: unnamed (protein)
chain 1: B13 chain 1 with G99D, P101D, W102A
chain 2: B13 chain 2

Where a chain is given by its changes, count along the chain named.

One test addresses IL36R. Put plainly: Kd (SPR).
Turning to B1, the Kd (as a rule, the concentration at which binding is half-saturated) is 0.964 nM. In other words, the sub-nanomolar range.

On to B2, for which the Kd was 1.04 nM.

The molecule B3 yielded an equilibrium dissociation constant (Kd) of 3.28 nM.

The molecule B4 gave a Kd of 3.16 nM. This Kd and that of the molecule before are within 1.5-fold of each other.

Molecule B5 came in with a dissociation constant Kd of 0.759 nM.

With B6, the Kd stood at 0.689 nM.

As for B7, the Kd came out at 0.617 nM. This Kd and that of the molecule before are within 1.5-fold of each other.

Molecule B8 returned a Kd of 1.4 nM.

Turning to B9, the dissociation constant (Kd) was 1.87 nM.

With B10, the Kd was 12.3 nM.

The molecule B11 showed a Kd of 24.5 nM.

As to B12, the equilibrium dissociation constant (Kd) was found to be 0.888 nM. Against the preceding molecule, the Kd is about 28-fold lower.

The target of another test is FXI. Kind of test: Kd (SPR).
The molecule B13 yielded a Kd of 284 nM.

Take B14: the Kd is 1410 nM. This Kd lies about 5-fold higher than the previous one.

B15 gave a Kd of 573 nM.

In turn, B16 showed a Kd of 204 nM.

Regarding B17, the Kd came out at 241 nM.

Molecule B18 showed a Kd of 822 nM.

B19 had a Kd of 625 nM.
